System: P49302
Test: […] (DSC); […] (40 mM tris, pH 8.0, 0.5 M ([…]; 1 mg/mL; […]) dissociation
Conditions: other: differential scanning calorimetry (DSC)

Substance: unmodified murine polyomavirus VP1 capsomere, as used for DSC
- dHm of capsomere dissociation (first DSC endotherm): 87.6 kcal/mol

From publication PMC4162605
